Data taken from the nanobody polyreactivity screen of Harvey et al. (2022).

Assay: yeast display, Sf9 membrane polyspecificity reagent, FACS + sequencing; frameworks hold sequencing errors
Outline: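 Genes from sorted yeast were amplified by colony PCR, read by MiSeq 2 × 250 sequencing and filtered on CDR length. These cells carried a synthetic nanobody library in Saccharomyces cerevisiae BJ5465 and were sorted by FACS into low and high (top ~1%) gates on anti-HA and streptavidin fluorescence. Polyreactivity is labelled according to the gate of origin.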

Row | Sequence | polyreactivity (PSR sort gate)
1 | QVQLVESGGGLVQAGGSLRLSCDASGIIFKYNAMGWYRQAPGKERELVAAITRRGGITYYADSVKGRFTISRDNAKNTVYLQMNSLKPEDTAVYYCAADLVYYHYYPWFYYWGQGTQVTVSS | high polyreactivity
2 | QVQLVESGGGLVQAGGSLRLSCAASGRILRYNAMGWYRQAPGKERELVASISGNGGSTYYADSVKGRFTISRDNAKNTVYLQMKSLKPEDTAVYYCNKYYYSSRGQKEYDYWGQGTQVTVSS | low polyreactivity
3 | QVQLVESGGGLVQAGGSLSLSCAASGFTFEKNAMGWYRQAPGKERELVAAITSGGSTYYADSVKGRFTISRDNAKNTVYLQMNSLKPEDTAVYYCNAYYTYRFNYWGQGTQVTVSS | high polyreactivity
4 | QVQLVESGGGLVQAGGSLRLSCAASGRTYNGYVMGGYRQAPGTEREFVAVINWSGGNTYDADSVKGRFTISRDNAKNTVSLQMNRLKPDDTAVYYCAPRRVRSYAYDYWGQGTQVTVSS | high polyreactivity
5 | QVQLVESGGGIVQAGCSLRLSCAASGRTFSWNSMGWYRQAPGKERELVAAITYSGGNTYYADSVKGRFSISRDNAKNTVYLQMNSLKQEDTAVYYCAKFGVTGQGSWSQRMGYWGQGTQVTVSS | high polyreactivity
6 | QGHLVESGGGLVQAGGSLRLSCAASGRIIRWNAMGWYRQGPGKERELFAGISGSGGSTYYADSVKGRFTISRDNAKNSVYLQMNSLKPEDTAVYYCNADADSSTYVGILQRLDYWGQGTQVTVSS | low polyreactivity
7 | QVQLVESRGGLVQAGGSLRLSCAASGFNFPHYAMGWYRQAPGKERELVAAISKSGDSTYYADSVKARFTISRDNAKNTVYLQMNSLKPEDTAVYYCARRGRSVRWKYDYWGQGTQVTVSS | low polyreactivity
8 | QVQLVESGGGLVQAGGSLRLSCAASGSTFHSYVMGWYRQAPGKERELVAAITSRGGSTNYADSVKGRFTISRDNAKNTVYLQMNSLKPEDTAVYYCAADGYWGWSYFRYDYWGQGTQVTVSS | low polyreactivity
9 | QVQLVESGGGLVQAGGSLRLSCAASGITFTVNAMGWYRQAPGKERELVAAISNDGSTYYADSVKGRFTISRDNAKNTVYLQMNSLKPEDTAVYYCAADTWDDFGPYGYDYWGQGTQVTVSS | low polyreactivity
10 | QVQLVESGRGLVQAGGSLRLSCAASGIIFKRYAMGWYRQAPGKERELVATINRDGRTSYADSVKGRFTSSRDNAKNTVYLQMHSLKPEDTAVYYCAATYLLERPTSKHPRYDYWGQGTQVTLSS | low polyreactivity
11 | QVQLVESGGGLVQAGGSLRLSCAASGIFDYYVMGWYIQAPGKERELVAAISKSVGSTYYADSVKGRFTISRDNAKNTVYLQMNSLKPEDTAVYYCAVENRYRFGYWGQGTQVTVSS | low polyreactivity
12 | QVQLVESGGGLVQAGGSLRLSCAASGITISWYAMGWYRQAPGKERELVAAITRTAGTNYADSVKGRFTISRDNAKNTVYLQMNSLKPEDTAVYYCAAVGHGGLLYWRNYGYGYWGQGTQVTVSS | low polyreactivity
13 | QVQLVESGGGLVQAGGSRRLSCAASGSTFRGNAMGWYRQAPGKERELVAASTWSGDDTYYADSVKGRFTISRDNAKNTVYLQMNSLKPEDTPVSYCAADLAAFTLAVADTYDYWGQGTQVTVSS | low polyreactivity
14 | QVQLVESGGGLVQAGGGLRLSCAASGSIFGSYAMGWYRQAPAKERELVAGITYRGSSTYYADSVKGRFTISRDNAKNTVYLQMTSLKPEDSAVYYCAADPVFDEYDYWGQGTQVTVSS | low polyreactivity
15 | QVQLVESGGGLVQAGGSLRLSCAASGSTFGYYAMGWYRQAPGKERELVASINWRGDSTYYADSVKGRFTISRDNAKNTVYLQMNSLKPEDTAVYYCNVKPSARGSPLYDYWGQGTQVTVSS | high polyreactivity
16 | QVQLVESGGGLVQAGGSLRLSCAASGSIFTLYAMGWYRQAPGKERELVADITFSGGTTYYADSVKGRFTISRDNAKNTVYLQMNSLKPEDTAVYYCATTYYQLYVQGYEYWGQGTQVTVSS | high polyreactivity
17 | QVQLVESGGGLFQAGGRLRLSCAASGSIFPPYAMGWYRQAPGKERELVAAINWSGGRTYYADSVKGRFTISRDHPKNTLYLHMNSLKPEDTEDYYGAADLRRYSGEYYYWGQRTQVTVSS | high polyreactivity
